Test results published in patent publication US20200262877A1, “ION CHANNEL-BINDING PEPTIDES AND METHODS OF USE THEREOF” (priority 2017, published 2020).

Columns and labels:
[1] = tested on: panel of 20 ion channels; assay type: cell-based
Protocol: This example describes a method for assaying ion channel activity in cells.
Peptides were screened in duplicate at final concentrations of 20 μM and 200 nM, as determined by amino acid analysis, and diluted into HEPES buffered physiological saline (HBPS). HEK293 or CHO cells from the American Type Culture Collection (ATCC) were transfected with the appropriate ion channel before use. HEK293 cells were grown in Dulbecco's Modified Eagle Medium/Nutrient Mixture F-12, and CHO cells were cultured in Ham's F-12 media. All cultures were supplemented with 10% fetal bovine serum, 100 U/ml penicillin G, 100 μg/ml streptomycin sulfate, and the appropriate selection antibiotics. Prior to use, cells were washed twice with Hank's Balanced Salt Solution, and treated with Accutase cell detachment solution (Sigma-Aldrich). Cells were then washed. Peptides and controls were incubated with cells for at least five minutes.
Percent inhibition was defined as: (1-(Ipeptide/Icontrol))×100%).
Percent values were calculated using the following formula: % activation=(IPeptide/Icontrol)×100%, where IPeptide is the current produced by co-application a peptide with agonist, and Icontrol refers to the current produced by stimulation in control. Control used for each ion channel is the reference compound matched to a particular channel, as illustrated in TABLE 10 below.

[2] = target: T1, Cav2.1 (Homo sapiens, UniProt O00555); test: cell-based
T1 construct: host or cells: HEK293 or CHO
How it was run: (§1)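 Transfected HEK293 or CHO cells were exposed for at least 5 min to peptides at 200 nM and 20 μM final, tested in duplicate, in HEPES-buffered physiological saline. Activation was taken as peptide-plus-agonist current over control current ×100, and inhibition as 1 minus that ratio ×100. Each channel's control was its own reference compound.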

[3] = target: T2, Cav2.2 (Homo sapiens, UniProt Q00975); test: cell-based
T2 construct: host or cells: HEK293 or CHO
How it was run: as §1

[4] = target: Nav1.5 (Homo sapiens, UniProt Q14524); test: in vitro; conditions: for Activity of Nav1.5 with peptide, expressed as a percentage of the reference compound: peptide at 0.2 μM; for Activity of Nav1.5 with peptide, expressed as a percentage of the reference compound / Activity of Nav1.5 with peptide (percentage of the reference compound): 100% = no change; for Activity of Nav1.5 with peptide (percentage of the reference compound): peptide at 20 μM
Chain of Nav1.5 (Q14524 whole entry): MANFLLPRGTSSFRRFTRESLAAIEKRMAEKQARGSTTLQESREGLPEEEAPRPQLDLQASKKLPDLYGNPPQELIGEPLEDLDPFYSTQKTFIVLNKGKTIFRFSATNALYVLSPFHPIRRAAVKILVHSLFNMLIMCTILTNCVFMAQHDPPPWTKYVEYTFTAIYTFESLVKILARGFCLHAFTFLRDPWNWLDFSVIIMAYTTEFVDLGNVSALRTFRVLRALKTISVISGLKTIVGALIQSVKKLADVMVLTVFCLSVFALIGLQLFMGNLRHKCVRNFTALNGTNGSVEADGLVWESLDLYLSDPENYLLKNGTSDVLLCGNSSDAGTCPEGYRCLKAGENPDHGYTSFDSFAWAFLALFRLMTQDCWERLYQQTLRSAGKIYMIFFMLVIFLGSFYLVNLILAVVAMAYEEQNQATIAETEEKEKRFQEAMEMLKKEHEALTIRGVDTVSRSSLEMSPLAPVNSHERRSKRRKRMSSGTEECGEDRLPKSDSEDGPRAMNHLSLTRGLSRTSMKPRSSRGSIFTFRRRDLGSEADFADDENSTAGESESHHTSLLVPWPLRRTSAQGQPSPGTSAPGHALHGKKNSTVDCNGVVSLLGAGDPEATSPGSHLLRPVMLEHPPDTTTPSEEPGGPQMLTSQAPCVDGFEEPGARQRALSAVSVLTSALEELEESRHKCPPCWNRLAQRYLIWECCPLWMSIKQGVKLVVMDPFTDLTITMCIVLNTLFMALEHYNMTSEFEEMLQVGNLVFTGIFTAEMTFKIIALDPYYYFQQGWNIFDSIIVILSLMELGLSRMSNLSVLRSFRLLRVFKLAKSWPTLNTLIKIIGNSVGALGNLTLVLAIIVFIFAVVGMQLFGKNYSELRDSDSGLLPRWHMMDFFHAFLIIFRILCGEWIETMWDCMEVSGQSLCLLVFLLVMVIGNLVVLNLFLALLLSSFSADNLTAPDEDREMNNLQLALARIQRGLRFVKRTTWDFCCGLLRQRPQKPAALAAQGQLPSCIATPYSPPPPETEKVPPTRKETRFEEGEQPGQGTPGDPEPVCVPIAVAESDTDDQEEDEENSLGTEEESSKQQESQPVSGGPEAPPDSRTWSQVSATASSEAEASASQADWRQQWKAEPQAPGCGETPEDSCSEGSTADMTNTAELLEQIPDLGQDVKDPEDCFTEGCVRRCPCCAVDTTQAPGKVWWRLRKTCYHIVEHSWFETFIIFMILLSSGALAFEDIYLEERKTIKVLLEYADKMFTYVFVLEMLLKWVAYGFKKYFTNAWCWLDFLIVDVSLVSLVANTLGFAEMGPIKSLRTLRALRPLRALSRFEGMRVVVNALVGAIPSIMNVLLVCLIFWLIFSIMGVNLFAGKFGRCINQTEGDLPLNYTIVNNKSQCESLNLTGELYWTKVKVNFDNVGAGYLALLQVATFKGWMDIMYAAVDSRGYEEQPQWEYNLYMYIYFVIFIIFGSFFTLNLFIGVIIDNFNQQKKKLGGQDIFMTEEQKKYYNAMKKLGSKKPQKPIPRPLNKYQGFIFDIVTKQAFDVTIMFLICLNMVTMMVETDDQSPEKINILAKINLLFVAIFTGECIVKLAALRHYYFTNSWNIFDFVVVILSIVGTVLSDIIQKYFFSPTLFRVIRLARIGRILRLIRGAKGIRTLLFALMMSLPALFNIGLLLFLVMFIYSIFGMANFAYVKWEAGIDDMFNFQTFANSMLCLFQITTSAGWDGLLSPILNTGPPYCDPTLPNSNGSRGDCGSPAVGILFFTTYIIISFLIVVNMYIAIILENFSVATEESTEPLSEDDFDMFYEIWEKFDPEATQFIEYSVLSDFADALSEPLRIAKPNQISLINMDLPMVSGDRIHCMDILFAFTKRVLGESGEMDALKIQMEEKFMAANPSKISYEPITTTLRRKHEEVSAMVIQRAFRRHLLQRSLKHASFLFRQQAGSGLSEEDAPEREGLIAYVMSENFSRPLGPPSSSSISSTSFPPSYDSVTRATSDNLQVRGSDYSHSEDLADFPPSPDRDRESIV
How it was run: as §1

[5] = target: hERG (Homo sapiens, UniProt Q12809); test: in vitro
Chain of hERG (Q12809 whole entry): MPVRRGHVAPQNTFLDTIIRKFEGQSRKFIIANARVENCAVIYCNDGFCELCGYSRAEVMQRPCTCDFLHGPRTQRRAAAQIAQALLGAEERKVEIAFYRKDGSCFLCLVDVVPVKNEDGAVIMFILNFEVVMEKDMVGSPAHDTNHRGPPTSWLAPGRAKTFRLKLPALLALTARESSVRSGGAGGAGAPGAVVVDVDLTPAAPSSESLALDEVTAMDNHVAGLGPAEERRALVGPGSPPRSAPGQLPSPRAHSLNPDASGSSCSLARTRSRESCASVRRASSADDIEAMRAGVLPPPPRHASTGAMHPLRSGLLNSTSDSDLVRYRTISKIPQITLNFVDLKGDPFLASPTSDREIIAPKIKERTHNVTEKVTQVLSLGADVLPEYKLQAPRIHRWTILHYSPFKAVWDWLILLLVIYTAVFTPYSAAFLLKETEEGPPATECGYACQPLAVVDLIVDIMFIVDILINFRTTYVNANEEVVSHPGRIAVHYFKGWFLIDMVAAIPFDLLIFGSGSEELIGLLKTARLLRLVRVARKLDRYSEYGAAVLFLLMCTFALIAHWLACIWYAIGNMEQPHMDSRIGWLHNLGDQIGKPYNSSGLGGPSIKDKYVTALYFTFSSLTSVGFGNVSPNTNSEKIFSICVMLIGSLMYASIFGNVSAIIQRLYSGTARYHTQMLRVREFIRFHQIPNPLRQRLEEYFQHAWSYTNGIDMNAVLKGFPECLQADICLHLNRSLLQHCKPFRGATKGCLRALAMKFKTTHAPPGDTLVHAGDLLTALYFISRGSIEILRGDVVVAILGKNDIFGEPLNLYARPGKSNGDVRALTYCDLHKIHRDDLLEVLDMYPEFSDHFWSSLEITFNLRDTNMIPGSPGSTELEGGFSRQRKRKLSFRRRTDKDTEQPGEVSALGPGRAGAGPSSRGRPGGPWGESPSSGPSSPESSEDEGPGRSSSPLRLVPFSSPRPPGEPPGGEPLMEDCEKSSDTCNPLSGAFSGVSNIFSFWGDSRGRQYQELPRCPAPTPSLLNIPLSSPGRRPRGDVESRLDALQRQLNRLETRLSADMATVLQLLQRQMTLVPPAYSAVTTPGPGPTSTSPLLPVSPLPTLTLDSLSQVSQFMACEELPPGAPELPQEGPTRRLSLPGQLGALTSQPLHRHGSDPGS
How it was run: as §1

[6] = target: T3, Nav1.7 (Homo sapiens, UniProt Q15858); test: cell-based; assay type: cell-based; conditions: for Activity of Nav1.7 with peptide, expressed as a percentage of the reference compound: peptide at 0.2 μM; for Activity of Nav1.7 with peptide, expressed as a percentage of the reference compound / Activity of Nav1.7 with peptide (percentage of the reference compound): 100% = no change; for Activity of Nav1.7 with peptide (percentage of the reference compound): peptide at 20 μM
T3 construct: host or cells: HEK293 or CHO
T3 sequence (Q15858 whole entry): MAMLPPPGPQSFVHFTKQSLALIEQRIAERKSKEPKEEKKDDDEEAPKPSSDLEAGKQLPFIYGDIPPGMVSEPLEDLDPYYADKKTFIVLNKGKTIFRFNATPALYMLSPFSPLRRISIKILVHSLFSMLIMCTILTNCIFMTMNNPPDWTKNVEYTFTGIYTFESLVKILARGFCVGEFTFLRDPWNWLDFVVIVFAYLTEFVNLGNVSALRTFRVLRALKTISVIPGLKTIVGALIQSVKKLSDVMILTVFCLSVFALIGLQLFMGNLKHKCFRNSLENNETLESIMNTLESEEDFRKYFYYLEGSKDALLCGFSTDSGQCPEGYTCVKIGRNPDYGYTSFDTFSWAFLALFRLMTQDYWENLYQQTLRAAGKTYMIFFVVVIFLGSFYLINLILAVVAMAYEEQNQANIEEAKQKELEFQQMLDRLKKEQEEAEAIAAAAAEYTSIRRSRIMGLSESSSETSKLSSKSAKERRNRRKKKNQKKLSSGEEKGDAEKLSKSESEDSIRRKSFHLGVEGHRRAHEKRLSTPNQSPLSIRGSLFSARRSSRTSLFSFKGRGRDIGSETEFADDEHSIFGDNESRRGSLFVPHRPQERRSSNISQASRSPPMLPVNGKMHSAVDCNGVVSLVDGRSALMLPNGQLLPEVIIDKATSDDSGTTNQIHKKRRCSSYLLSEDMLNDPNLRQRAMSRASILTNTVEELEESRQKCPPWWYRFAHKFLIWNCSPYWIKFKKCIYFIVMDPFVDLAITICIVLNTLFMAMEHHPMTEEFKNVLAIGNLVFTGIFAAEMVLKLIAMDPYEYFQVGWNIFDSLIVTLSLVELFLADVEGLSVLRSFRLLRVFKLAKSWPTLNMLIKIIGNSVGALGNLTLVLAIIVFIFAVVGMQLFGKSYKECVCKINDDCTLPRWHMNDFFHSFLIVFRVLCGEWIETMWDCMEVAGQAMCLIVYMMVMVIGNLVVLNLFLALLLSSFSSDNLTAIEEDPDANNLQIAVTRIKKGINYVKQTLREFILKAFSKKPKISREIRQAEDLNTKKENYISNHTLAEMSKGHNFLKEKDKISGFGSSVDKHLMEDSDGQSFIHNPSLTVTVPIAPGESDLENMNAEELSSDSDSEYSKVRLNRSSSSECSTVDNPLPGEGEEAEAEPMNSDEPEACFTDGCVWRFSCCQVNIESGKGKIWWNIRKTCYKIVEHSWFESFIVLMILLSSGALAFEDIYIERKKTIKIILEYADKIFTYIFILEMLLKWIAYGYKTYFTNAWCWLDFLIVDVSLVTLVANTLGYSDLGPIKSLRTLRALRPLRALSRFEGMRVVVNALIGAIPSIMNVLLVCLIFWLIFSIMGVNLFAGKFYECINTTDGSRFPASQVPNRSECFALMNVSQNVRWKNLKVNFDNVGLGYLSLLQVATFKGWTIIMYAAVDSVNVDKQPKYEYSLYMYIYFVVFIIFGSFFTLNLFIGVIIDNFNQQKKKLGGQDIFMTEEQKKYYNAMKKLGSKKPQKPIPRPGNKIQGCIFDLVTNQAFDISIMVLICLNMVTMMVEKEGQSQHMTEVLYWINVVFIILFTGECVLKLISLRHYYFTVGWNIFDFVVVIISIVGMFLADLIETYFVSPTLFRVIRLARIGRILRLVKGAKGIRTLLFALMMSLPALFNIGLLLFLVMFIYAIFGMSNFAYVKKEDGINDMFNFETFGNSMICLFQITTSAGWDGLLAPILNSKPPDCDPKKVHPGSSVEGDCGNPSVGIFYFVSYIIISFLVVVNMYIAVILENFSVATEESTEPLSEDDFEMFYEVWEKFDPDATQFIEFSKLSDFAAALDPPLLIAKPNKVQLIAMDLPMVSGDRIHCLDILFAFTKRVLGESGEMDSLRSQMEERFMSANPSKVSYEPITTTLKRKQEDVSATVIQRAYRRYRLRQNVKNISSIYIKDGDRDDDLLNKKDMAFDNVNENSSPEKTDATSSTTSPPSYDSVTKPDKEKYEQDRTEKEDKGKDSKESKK

[7] = target: T4, 5HT3a (Homo sapiens, UniProt P46098); test: Ion channel panel (IonWorks Barracuda): 5HT3a; assay type: cell-based
T4 construct: host or cells: HEK293 or CHO
T4 sequence (P46098 whole entry, looked up): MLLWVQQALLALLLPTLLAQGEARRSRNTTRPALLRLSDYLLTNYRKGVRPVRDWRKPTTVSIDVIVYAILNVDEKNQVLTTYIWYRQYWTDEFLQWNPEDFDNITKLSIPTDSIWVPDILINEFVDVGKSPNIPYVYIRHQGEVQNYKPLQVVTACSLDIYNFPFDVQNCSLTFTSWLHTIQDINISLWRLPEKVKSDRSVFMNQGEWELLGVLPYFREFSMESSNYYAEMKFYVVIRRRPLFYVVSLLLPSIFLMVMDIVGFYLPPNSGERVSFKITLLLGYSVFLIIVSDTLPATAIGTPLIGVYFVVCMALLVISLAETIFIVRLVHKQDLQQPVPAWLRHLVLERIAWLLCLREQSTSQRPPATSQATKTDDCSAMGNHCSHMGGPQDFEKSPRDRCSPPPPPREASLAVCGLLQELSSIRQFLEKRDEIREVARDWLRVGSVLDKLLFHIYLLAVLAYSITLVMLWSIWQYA
How it was run: as §1

[8] = target: T5, α3β4 (Homo sapiens, UniProt P30926+P32297); test: Ion channel panel (IonWorks Barracuda): α3β4; assay type: cell-based; conditions: 100% = no change, <100% = inhibition
T5 construct: host or cells: HEK293 or CHO
How it was run: as §1

[9] = target: T6, α4β2 (Homo sapiens, UniProt P17787+P43681); test: Ion channel panel (IonWorks Barracuda): α4β2; assay type: cell-based; conditions: 100% = no change, <100% = inhibition
T6 construct: host or cells: HEK293 or CHO
How it was run: as §1

[10] = target: T7, Kv2.1 (Homo sapiens, UniProt Q14721); test: cell-based; conditions: 100% = no change, <100% = inhibition
T7 construct: host or cells: HEK293 or CHO
How it was run: as §1

[11] = tested on: GABA; test: Ion channel panel (IonWorks Barracuda): GABA; assay type: cell-based; conditions: 100% = no change, <100% = inhibition
How it was run: as §1

[12] = target: T8, Kir2.1 (Homo sapiens, UniProt P63252); test: Ion channel panel (IonWorks Barracuda): Kir2.1; assay type: cell-based; conditions: 100% = no change, <100% = inhibition
T8 construct: host or cells: HEK293 or CHO
How it was run: as §1

[13] = target: T9, Kv1.1 (Homo sapiens, UniProt Q09470); test: cell-based; assay type: cell-based; conditions: 100% = no change, <100% = inhibition
T9 construct: host or cells: HEK293 or CHO
How it was run: as §1

[14] = target: T10, Kv1.2 (Homo sapiens, UniProt P16389); test: cell-based; assay type: cell-based; conditions: 100% = no change, <100% = inhibition
T10 construct: host or cells: HEK293 or CHO
How it was run: as §1

[15] = target: T11, Kv1.3 (Homo sapiens, UniProt P22001); test: cell-based; assay type: cell-based; conditions: 100% = no change, <100% = inhibition
T11 construct: host or cells: HEK293 or CHO
How it was run: as §1

[16] = target: T12, NR2A (Homo sapiens, UniProt Q12879); test: Ion channel panel (IonWorks Barracuda): NR2A; assay type: cell-based; conditions: 100% = no change, <100% = inhibition
T12 construct: host or cells: HEK293 or CHO
How it was run: as §1

[17] = target: T13, NR2B (Homo sapiens, UniProt Q13224); test: Ion channel panel (IonWorks Barracuda): NR2B; assay type: cell-based; conditions: 100% = no change, <100% = inhibition
T13 construct: host or cells: HEK293 or CHO
How it was run: as §1

[18] = target: T14, TRPA1 (Homo sapiens, UniProt O75762); test: Ion channel panel (IonWorks Barracuda): TRPA1; assay type: cell-based; conditions: 100% = no change, <100% = inhibition
T14 construct: host or cells: HEK293 or CHO
How it was run: as §1

[19] = target: T15, TRPV1 (Homo sapiens, UniProt Q8NER1); test: Ion channel panel (IonWorks Barracuda): TRPV1; assay type: cell-based; conditions: 100% = no change, <100% = inhibition
T15 construct: host or cells: HEK293 or CHO
How it was run: as §1

[20] = read-out: Ion channel activity (ion channel inhibition)
[21] = peptide at 0.2 μM, 100% = no change, <100% = inhibition
[22] = peptide at 20 μM, 100% = no change, <100% = inhibition
[23] = first of two Nav1.5 columns (probably TP1)
[24] = second of two Nav1.5 columns (probably TP2)
[25] = first of two Nav1.7 columns (probably TP1)
[26] = second of two Nav1.7 columns (probably TP2)

CC[C@H](C)[C@@H]1NC(=O)[C@H](CC(N)=O)NC(=O)[C@H](CCCNC(=N)N)NC(=O)[C@@H]2CCCN2C(=O)[C@H](Cc2c[nH]c3ccccc23)NC(=O)[C@H](CCCCN)NC(=O)[C@H](CO)NC(=O)[C@H](CCCCN)NC(=O)[C@@H]2CSSC[C@@H]3NC(=O)[C@H](CCCCN)NC(=O)CNC(=O)[C@H](Cc4c[nH]c5ccccc45)NC(=O)[C@H](Cc4ccccc4)NC(=O)[C@H](CCCNC(=N)N)NC(=O)[C@H](C(C)C)NC(=O)[C@@H](NC(=O)[C@H](CC(=O)O)NC(=O)[C@H](CO)NC(=O)CN)CSSC[C@H](NC(=O)[C@H](CSSC[C@@H](C(=O)N[C@H](C(=O)N[C@@H](Cc4c[nH]c5ccccc45)C(=O)N[C@@H](CC(=O)O)C(=O)NCC(=O)N[C@@H](CO)C(=O)N[C@H](C(=O)NCC(=O)O)C(C)C)C(C)C)NC1=O)NC(=O)[C@H](CC(=O)O)NC(=O)[C@H](CO)NC(=O)[C@H]([C@@H](C)O)NC(=O)[C@H](CCC(N)=O)NC(=O)[C@H](CO)NC3=O)C(=O)N1CCC[C@H]1C(=O)N[C@@H](Cc1c[nH]cn1)C(=O)N[C@@H](CC(C)C)C(=O)N[C@@H](C)C(=O)N2 [SEQ ID NO: 7]
Inhibition of voltage-sensitive calcium channels [1]: inhibited voltage-sensitive calcium channels
activity at 20 µM [2, 20]: < 50%
activity at 20 µM [3, 20]: < 50%
activity at 20 µM [4]: < 50%
activity at 20 µM ([5]; human): < 50%
activity at 20 µM [6, 20]: < 50%

GSQIDTNVKCSGSSKCVKICIDRYNTRGAKCINGRCTCYP [SEQ ID NO: 20]
Activity on potassium channels ([1]; potassium channels of the panel, 0.2 or 20 μM, FIG. 2): showed activity on various subsets of potassium channels

26 (GSVVIGQRCYRSPDCYSACKKLVGKATGKCTNGRCDC) [compound 26]
Activity of 5HT3a with peptide (percentage of the reference compound) [7]: 96%
Activity of 5HT3a with peptide, expressed as a percentage of the reference compound [7]: 82%
Activity of a3b4 with peptide, expressed as a percentage of the reference compound ([8]; peptide at 0.2 μM): 88%
Activity of a3b4 with peptide (percentage of the reference compound) ([8]; peptide at 20 μM): 91%
Activity of a4b2 with peptide, expressed as a percentage of the reference compound ([9]; peptide at 0.2 μM): 85%
Activity of a4b2 with peptide (percentage of the reference compound) ([9]; peptide at 20 μM): 89%
Activity of Cav2.1 with peptide, expressed as a percentage of the reference compound [2, 21]: 115%
Activity of Cav2.1 with peptide (percentage of the reference compound) [2, 22]: 85%
Activity of Cav2.2 with peptide, expressed as a percentage of the reference compound [3, 21]: 103%
Activity of Cav2.2 with peptide (percentage of the reference compound) [3, 22]: 121%
Activity of Kv2.1 with peptide, expressed as a percentage of the reference compound ([10]; peptide at 0.2 μM): 98%
Activity of Kv2.1 with peptide (percentage of the reference compound) ([10]; peptide at 20 μM): 102%
Activity of GABA with peptide, expressed as a percentage of the reference compound ([11]; peptide at 0.2 μM): 117%
Activity of GABA with peptide (percentage of the reference compound) ([11]; peptide at 20 μM): 106%
Activity of Nav1.5 with peptide, expressed as a percentage of the reference compound [4, 23]: 92%
Activity of Nav1.5 with peptide, expressed as a percentage of the reference compound [4, 24]: 91%
Activity of Nav1.5 with peptide (percentage of the reference compound) [4, 23]: 90%
Activity of Nav1.5 with peptide (percentage of the reference compound) [4, 24]: 94%
Activity of hERG with peptide, expressed as a percentage of the reference compound [5, 21]: 80%
Activity of hERG with peptide (percentage of the reference compound) [5, 22]: 74%
Activity of Kir2.1 with peptide, expressed as a percentage of the reference compound ([12]; peptide at 0.2 μM): 102%
Activity of Kir2.1 with peptide (percentage of the reference compound) ([12]; peptide at 20 μM): 93%
Activity of Kv1.1 with peptide, expressed as a percentage of the reference compound ([13]; peptide at 0.2 μM): 66%
Activity of Kv1.1 with peptide (percentage of the reference compound) ([13]; peptide at 20 μM): 85%
Activity of Kv1.2 with peptide, expressed as a percentage of the reference compound ([14]; peptide at 0.2 μM): 79%
Activity of Kv1.2 with peptide (percentage of the reference compound) ([14]; peptide at 20 μM): 47%
Activity of Kv1.3 with peptide, expressed as a percentage of the reference compound ([15]; peptide at 0.2 μM): 94%
Activity of Kv1.3 with peptide (percentage of the reference compound) ([15]; peptide at 20 μM): 77%
Activity of Nav1.7 with peptide, expressed as a percentage of the reference compound [6, 25]: 81%
Activity of Nav1.7 with peptide, expressed as a percentage of the reference compound [6, 26]: 74%
Activity of Nav1.7 with peptide (percentage of the reference compound) [6, 25]: 73%
Activity of Nav1.7 with peptide (percentage of the reference compound) [6, 26]: 60%
Activity of NR2A with peptide, expressed as a percentage of the reference compound ([16]; peptide at 0.2 μM): 113%
Activity of NR2A with peptide (percentage of the reference compound) ([16]; peptide at 20 μM): 114%
Activity of NR2B with peptide, expressed as a percentage of the reference compound ([17]; peptide at 0.2 μM): 86%
Activity of NR2B with peptide (percentage of the reference compound) ([17]; peptide at 20 μM): 79%
Activity of TRPA1 with peptide, expressed as a percentage of the reference compound ([18]; peptide at 0.2 μM): 109%
Activity of TRPA1 with peptide (percentage of the reference compound) ([18]; peptide at 20 μM): 115%
Activity of TRPV1 with peptide, expressed as a percentage of the reference compound ([19]; peptide at 0.2 μM): 116%
Activity of TRPV1 with peptide (percentage of the reference compound) ([19]; peptide at 20 μM): 92%
